The values that follow come from paper PMC10786891, “Massively parallel profiling of RNA-targeting CRISPR-Cas13d”.

The chains are these.
T1: EsCas13d, nuclease-dead (Eubacterium siraeum, UniProt B0MS50, R295A;H300A;R849A;H854A)
T1 sequence: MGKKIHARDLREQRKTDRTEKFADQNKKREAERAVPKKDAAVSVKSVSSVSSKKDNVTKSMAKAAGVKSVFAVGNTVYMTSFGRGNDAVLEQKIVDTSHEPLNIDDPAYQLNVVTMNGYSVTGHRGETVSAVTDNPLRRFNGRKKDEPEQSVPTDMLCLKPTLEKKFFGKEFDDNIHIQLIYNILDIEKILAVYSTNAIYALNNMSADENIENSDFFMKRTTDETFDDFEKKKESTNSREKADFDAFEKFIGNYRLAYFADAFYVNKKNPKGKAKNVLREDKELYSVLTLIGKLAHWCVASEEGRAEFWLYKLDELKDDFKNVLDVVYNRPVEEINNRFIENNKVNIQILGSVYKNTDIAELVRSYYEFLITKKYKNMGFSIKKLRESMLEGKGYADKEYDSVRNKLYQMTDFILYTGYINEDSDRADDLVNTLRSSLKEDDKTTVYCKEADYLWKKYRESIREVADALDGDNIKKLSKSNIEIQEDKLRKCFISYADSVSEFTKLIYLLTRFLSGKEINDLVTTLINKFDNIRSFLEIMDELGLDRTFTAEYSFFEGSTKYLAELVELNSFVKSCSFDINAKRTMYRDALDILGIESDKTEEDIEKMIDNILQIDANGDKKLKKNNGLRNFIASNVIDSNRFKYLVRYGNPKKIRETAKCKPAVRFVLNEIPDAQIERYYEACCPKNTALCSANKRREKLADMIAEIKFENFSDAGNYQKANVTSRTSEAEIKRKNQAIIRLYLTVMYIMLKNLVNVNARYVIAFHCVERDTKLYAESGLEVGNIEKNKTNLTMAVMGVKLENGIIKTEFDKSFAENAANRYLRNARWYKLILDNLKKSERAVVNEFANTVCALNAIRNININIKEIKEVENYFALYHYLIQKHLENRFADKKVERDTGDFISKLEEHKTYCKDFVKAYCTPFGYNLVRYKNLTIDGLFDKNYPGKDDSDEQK

B1: target 1 U8C,A18U (mixed)
RNA 1: CACCCGUGCAAAAAUGCAGGGGUCUAAAACUGAGCGGAUAACCUCUCUAUGG
RNA 2: GGGAAUGGAUCCACAUCUACGAAUUCGUACCAUUGAGAGGUUACCCGCUCACCGAGAUCGGAAGAGCACACGU
B2: target 1 C2A,A14G (mixed)
RNA 1: B1 RNA 1
RNA 2: B1 RNA 2 with U34A, A38G, C44U, C50A
B3: target 3 C6U,U8C (mixed)
RNA 1: CACCCGUGCAAAAUUGCAGGGGUCUAAAACGACCUGAAUAUUUCAGAUCAAA
RNA 2: GGGAAUGGAUCCACAUCUACGAAUUCGUUUUUGAUCUGAAAUACUUAGGUCUGCAGAUCGGAAGAGCACACGU
B4: target 3 G4A,C6U (mixed)
RNA 1: B3 RNA 1
RNA 2: B3 RNA 2 with C44U, G48A
B5: target 3 insA 3' of 19 (mixed)
RNA 1: B3 RNA 1
RNA 2: GGGAAUGGAUCCACAUCUACGAAUUCGUUUUUGAAUCUGAAAUAUUCAGGUCUGCAGAUCGGAAGAGCACACGU
B6: target 3 U2G,U10G (mixed)
RNA 1: B3 RNA 1
RNA 2: B3 RNA 2 with U42G, C44U, U46C, U50G
B7: target 3 insA 3' of 8,insG 3' of 6 (mixed)
RNA 1: B3 RNA 1
RNA 2: GGGAAUGGAUCCACAUCUACGAAUUCGUUUUUGAUCUGAAAUAUAUCGAGGUCUGCAGAUCGGAAGAGCACACGU
B8: target 3 insG 3' of 16,insU 3' of 3 (mixed)
RNA 1: B3 RNA 1
RNA 2: GGGAAUGGAUCCACAUCUACGAAUUCGUUUUUGAUCGUGAAAUAUUCAGGUUCUGCAGAUCGGAAGAGCACACGU
B9: target 3 insG 3' of 22,insA 3' of 2 (mixed)
RNA 1: B3 RNA 1
RNA 2: B8 RNA 2 with U31G, G33U, A34G, U35A, C36U, G37C, U52A
B10: target 3 insA 3' of 22,insU 3' of 16 (mixed)
RNA 1: B3 RNA 1
RNA 2: GGGAAUGGAUCCACAUCUACGAAUUCGUUUAUUGAUCUUGAAAUAUUCAGGUCUGCAGAUCGGAAGAGCACACGU
B11: target 3 insG 3' of 9,insU 3' of 3 (mixed)
RNA 1: B3 RNA 1
RNA 2: B7 RNA 2 with U44G, A45U, G48A, A49G, G51U
B12: target 3 G3A,U22A (mixed)
RNA 1: B3 RNA 1
RNA 2: B3 RNA 2 with U30A, C44U, U46C, G49A
B13: target 3 insG 3' of 8,insC 3' of 7 (mixed)
RNA 1: B3 RNA 1
RNA 2: B7 RNA 2 with A45G, G48C
B14: target 3 insC 3' of 8,insG 3' of 5 (mixed)
RNA 1: B3 RNA 1
RNA 2: B7 RNA 2 with A45C, G48A, A49G
B15: target 3 G3A,G4A (mixed)
RNA 1: B3 RNA 1
RNA 2: B3 RNA 2 with C44U, U46C, G48A, G49A
B16: target 3 insC 3' of 7 (mixed)
RNA 1: B3 RNA 1
RNA 2: B5 RNA 2 with A35U, U36C, C37U, U38G, G39A, A42U, U43A, A44U, U46C
B17: target 3 G3A,G4U (mixed)
RNA 1: B3 RNA 1
RNA 2: B3 RNA 2 with C44U, U46C, G48U, G49A
B18: target 3 insG 3' of 8,insC 3' of 5 (mixed)
RNA 1: B3 RNA 1
RNA 2: B7 RNA 2 with A45G, G48A, A49C
B19: target 3 insC 3' of 20,insA 3' of 6 (mixed)
RNA 1: B3 RNA 1
RNA 2: B8 RNA 2 with G33C, A34G, U35A, C36U, G37C, G49A, U51G
B20: target 3 U21A (mixed)
RNA 1: B3 RNA 1
RNA 2: B3 RNA 2 with U31A, C44U, U46C
B21: target 3 C6U,U22A (mixed)
RNA 1: B3 RNA 1
RNA 2: B3 RNA 2 with U30A, C44U
B22: target 3 insG 3' of 5,insG 3' of 2 (mixed)
RNA 1: B3 RNA 1
RNA 2: B7 RNA 2 with A45U, U46C, C47A, A49G, G51U, U52G
B23: target 3 insC 3' of 4,insC 3' of 3 (mixed)
RNA 1: B3 RNA 1
RNA 2: B7 RNA 2 with A45U, U46C, C47A, A49C, G51C
B24: target 3 insA 3' of 10,insU 3' of 3 (mixed)
RNA 1: B3 RNA 1
RNA 2: B8 RNA 2 with G37U, U38G, G39A, A42U, U43A
B25: target 3 U2A,G4U (mixed)
RNA 1: B3 RNA 1
RNA 2: B3 RNA 2 with C44U, U46C, G48U, U50A
B26: target 3 C6U,U8G (mixed)
RNA 1: B3 RNA 1
RNA 2: B3 RNA 2 with C44G
B27: target 3 U2C,U7A (mixed)
RNA 1: B3 RNA 1
RNA 2: B3 RNA 2 with C44U, U45A, U46C, U50C

Numbering of substitutions follows the chain as printed. Numbers in names are those of the source.

For this series, the target named is T1, EsCas13d, nuclease-dead. In words: crRNA (strand 1, pre-loaded); Mg2+; 40 mM Tris-HCl pH 7.5, 150 mM NaCl, 6 mM MgCl2, 1 mM DTT, 0.1% Tween-20, 0.2 mg/ml BSA; 25 C; 10 min per concentration, then washed. The following applies: tags: His6-TwinStrep-SUMO cleaved; N-terminal SNAP kept (SNAP-Surface 488); label: 3' end held by stalled T7 RNA polymerase.
The term Kd denotes the free concentration of one partner at which half of the binding sites on the other are occupied at equilibrium, for simple one-to-one binding. Lower therefore signals tighter binding. Turning to B1, the dissociation constant (Kd) is 0.043 ± 0.004 µM.

The molecule B2 yielded a Kd of 0.0135 ± 0.0005 µM. Against the preceding molecule, the Kd is about 3.2-fold lower. The value for B3 was 0.0335 ± 0.00295 µM; that for B4 was 0.0157 ± 0.00125 µM. The value for B5 was 0.083 ± 0.0215 µM; that for B6 was around 0.105 µM; that for B7 was 0.0455 ± 0.0045 µM. B8 displayed a Kd of around 0.071 µM. The value for B9 was 0.072 ± 0.021 µM. As for B10, the Kd worked out at 0.071 ± 0.014 µM. The value for B11 was 0.0435 ± 0.007 µM; that for B12 was 0.047 ± 0.0105 µM; that for B13 was 0.057 ± 0.009 µM.

Turning to B14, the Kd was found to be 0.12 ± 0.05 µM. Compared with the last molecule, the Kd is about 2.1-fold higher. The value for B15 was 0.0087 ± 0.00075 µM; that for B16 was 0.0905 ± 0.0205 µM.

Take B17: the Kd was 0.00895 ± 0.00095 µM. The molecule B18 showed a Kd of 0.039 ± 0.004 µM. In the case of B19, binding was put at a Kd of 0.105 ± 0.0435 µM. Turning to B20, the Kd came out at 0.0355 ± 0.004 µM. Compared with the last molecule, the Kd is about 3-fold lower. The value for B21 was 0.0133 ± 0.0014 µM; that for B22 was 0.0266 ± 0.0041 µM. In the case of B23, the Kd is 0.0229 ± 0.00265 µM.

Consider B24, for which binding was characterised by a dissociation constant (Kd) of 0.0675 ± 0.0175 µM. The value for B25 was 0.00198 ± 0.0002 µM; that for B26 was 0.0441 ± 0.00335 µM; that for B27 was 0.077 ± 0.023 µM.
